Laboratory results as given in PMC8558179, “The C-terminal peptide of CCL21 drastically augments CCL21 activity through the dendritic cell lymph node homing receptor CCR7 by interaction with the receptor N-terminus” (Cellular and Molecular Life Sciences: CMLS, 2021).
Where a chain is given by its changes, count along the chain named.

Experiments:
[1] = biological target: T1, human CCR7 (Homo sapiens, UniProt P32248); test: Gαi signaling, BRET-based cAMP (CAMYEL) assay at CCR7 in CHO cells; type: cell-based; conditions: for boosting of CCL21-induced Gαi signaling: CCL21 + 10 µM peptide, BRET cAMP, n = 3–8
T1 construct: CCR7 contains a 24-residue long signal peptide cleaved of from the mature protein; expressed in transfected cells; host or cells: CHO cells (CHO-K1, CHO suspension WT, GAG-deficient and 5xKO GalNAc-T knockout lines), transient transfection
T1 sequence (P32248 25-378): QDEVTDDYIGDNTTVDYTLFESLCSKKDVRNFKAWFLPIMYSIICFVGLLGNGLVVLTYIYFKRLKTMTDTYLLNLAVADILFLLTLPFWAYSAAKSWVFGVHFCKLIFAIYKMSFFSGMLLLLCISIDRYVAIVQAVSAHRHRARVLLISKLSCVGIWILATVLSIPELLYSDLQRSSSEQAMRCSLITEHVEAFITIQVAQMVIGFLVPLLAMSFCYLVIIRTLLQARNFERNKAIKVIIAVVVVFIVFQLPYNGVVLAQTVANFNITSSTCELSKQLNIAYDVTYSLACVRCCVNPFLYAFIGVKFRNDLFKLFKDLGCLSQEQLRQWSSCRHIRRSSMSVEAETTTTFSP
Procedure: (§1) Human DCs were cultured in X-vivo 15 medium with 2% human AB serum and glutamine. CHO-K1 pgsB-618 ATCC® CRL2241™ [24] and CHO-K1 cells were grown in RPMI with 10% FBS and Penicillin/Streptomycin. HS^−/− (CHO EXTL 2/3 −/−), CS^−/− (CSGALNACT 1/2^−/− CHSY1^−/−), 5xKO (GalNAc-T1, 2, 4, 7 and 10 −/−) and WT CHO suspension cells were grown in suspension in 1:1 of EX-Cell CD CHO fusion media and Balanced CD CHO growth A medium supplemented with 2% glutamine and Penicillin/Streptomycin. Cells were kept in a humidified incubator at 37 °C, 5% CO2.
(§2) For cAMP assays, adherent CHO cells were transfected using lipofectamine while suspension cells were transfected using the FectoPro method. Cells were seeded in a 6-well plate, either 500,000 (adherent cells) or 200,000 (suspension cells) cells/well. The next day the cells were transiently transfected with vectors encoding the human CCR7 and CAMYEL sensor (cAMP sensor using YFP-Epac-RLuc) in a 1:5 ratio using lipofectamine (6 µl/well) or FectoPro (4 µl/well). Lipofectamine transfections were terminated by changing to 2 ml fresh cultivation medium after 5 h, while Fectopro transfection was terminated after 3 h by adding 2.5 ml fresh cultivation medium and 2 µl FectoPro Boost reagent per well. The cells were incubated under standard cultivation conditions overnight. For β-arrestin recruitment assays, cells were transfected with CCR7 and vectors expressing a Renilla luciferase arrestin3 fusion protein and membrane-SH3-citrine protein. The cells were then resuspended in PBS w/glucose and seeded in 96-well white iso plates (~ 25,000 cells/well). Coelenterazine (bioluminescence substrate) was added to a final conc. of 5 µM. After 10 min, cells were stimulated with varying ligand concentrations for a total of 40 min. Forskolin was added to each well 5 min after ligand addition to reach a final conc. of 5 µM. The plates were kept in the dark at all times. Emission signal from Rluc and eYFP was measured using the Envision machine at 530 and 480 nm and the BRET signal determined as the ratio between (eYFP/Rluc).

[2] = system: human moDCs naturally expressing CCR7; test: 3D chemotaxis, time-lapse recording of human moDCs in Collagen I (chemotactic index); type: cell-based; conditions: human moDCs; for boosting of CCL21-induced DC chemotaxis: 10 nM CCL21, peptide 10 µM (0.1–10 µM in the dose series)
Procedure: Buffy coats were obtained from Rigshospitalet Copenhagen, as anonymous material, with written informed consent from the donors. The local ethics committee at Faculty of Health and Medical Sciences at the University of Copenhagen (Research Ethics Committee for Sund and Science, University of Copenhagen) found the project exempt from approval. DCs were prepared from human peripheral blood mononuclear cells (PBMC) isolated from buffy coats by centrifugation on a Lymphoprep gradient as previously described. Briefly, monocytes were isolated by plastic adherence of PBMC. Adhered monocytes were subsequently cultured and differentiated into immature DCs by incubation with IL-4 (250 U/ml) and GM-CSF (1000 U/ml) for 6 days, followed by activation into mature DCs by incubation with IL-6 (1000 U/ml), IL-1β (1000 U/ml), TNF-α (1000 U/ml), and PGE2 (1 µg/ml) for an additional 2 days in the same medium.
as §1
Chemotaxis assays were conducted as previously described. Briefly, mature human moDCs were left to acclimatize in medium for 30 min at room temperature (RT) upon defrosting, before assay start. DCs were seeded in Bovine Collagen I mixture prepared by mixing 10 µl Na2HCO3 (7.5%), 20 µl MEM (10×), 150 µl PureCol and 90 µl DCs dissolved in X-vivo 15 medium (2 × 10^6 cells/ml). After incubation for 45 min in a humidified incubator at 37 °C (5% CO2), the source and sink reservoirs were filled according to the manufacturer’s instructions and chemotaxis was tracked in a time-lapse microscope with a humidified temperature controlled stage incubator for 12 h at a 2 min interval. Cell migration (approximately 20–40 cells per viewing field) was tracked using a commercial tracking program (Autozell) and subsequently analyzed to get a population-based chemotactic index (CI) value (MATLAB). CI is a measure of net translocation distance to the source relative to total distance traveled and was thus calculated as the ratio of the distance traveled in the direction of the gradient over the total distance traveled and therefore is a conservative measure of the directedness of cell migration.

[3] = biological target: T2, CCR7^−O (CCR7 T37/38/42A) (Homo sapiens, UniProt P32248, T37A/T38A/T42A); test: Gαi signaling, BRET cAMP assay, CCR7 lacking N-terminal O-glycosylation sites; type: cell-based; conditions: no peptide, CCR7^−O vs WT CCR7
T2 construct: CCR7 contains a 24-residue long signal peptide cleaved of from the mature protein; expressed in transfected cells; host or cells: CHO cells, transient transfection
T2 sequence (P32248 25-378 T37A/T38A/T42A): T1 sequence (P32248 25-378) with T13A, T14A, T18A
Procedure: O-glycosylation deficient CCR7 was generated from WT through Quick change PCR using the following primers: […]
as §2

[4] = biological target: T1, human CCR7; test: β-arrestin recruitment, BRET-based assay at CCR7; type: cell-based; conditions: no peptide, n = 4
Procedure: as §2

[5] = system: CCR7; conditions: allosteric antagonist, cytosolic site; cited from earlier work
Source text: In the absence of peptide, CCL19 and CCL21 contact CCR7 in different manners. The interaction of CCL21 depends on residues in the top of TM-3, -4 and -5 that are not important for CCL19 interaction with CCR7. The binding of these two chemokines induce different structural changes in CCR7 to disrupt old and create new hydrogen bonds. CCL21 binding to CCR7 is believed to involve movements within the majority of helical domains (TM2, -3, -4, -5, -6, and -7), whereas the changes induced by CCL19 are restricted to regions of TM3, -5, and -6 [37]. The conformational changes in CCR7 ind ...

Row | boosting of CCL21-induced Gαi signaling ([1]; CHO cells) | Compound | boosting of CCL21-induced DC chemotaxis [2] | also measured
1 | conserved boosting effects | TP81-102: C-terminally truncated version of TP81-111 (RKDRGASKTGKKGKGSKGCKRT; UniProt O00585 104-125, looked up, fragment) | conserved boosting effects | 
2 | boosted even more | TP81-111: naturally occurring peptide generated upon plasmin cleavage of CCL21 (RKDRGASKTGKKGKGSKGCKRTERSQTPKGP; UniProt O00585 104-134, looked up, fragment) | at least to the same extent as TP71-111 | 

Continued, compound first:

Row | Compound | boosting of CCL21-induced Gαi signaling ([1]; CHO cells) | boosting of CCL21-induced DC chemotaxis [2] | also measured
3 | TP91-111: C21TP reduced N-terminally by 20 aa (KKGKGSKGCKRTERSQTPKGP; UniProt O00585 114-134, looked up, fragment) | retaining boosting ability | retaining boosting ability | 
4 | CCL19: endogenous chemokine, CCR7 ligand, from R&D Systems |  |  | chemokine signaling in O-glycosylation-deficient 5xKO cells ([1]; CHO 5xKO vs WT, CCL21 alone, CCL19 in absence or presence of C21TP): only slightly impaired; pEC50, Gαi signaling, chemokine alone ([1]; no peptide, CHO cells, forskolin 5 µM, n = 4): 7.94; chemokine activity on its own at CCR7^−O [3]: without affecting basal CCR7 activation via CCL19 and CCL21; chemotaxis towards chemokine alone ([2]; 10 nM chemokine, no peptide): strong migratory signal; pEC50, β-arrestin recruitment, chemokine alone [4]: 7.11
5 | TP81-97: C-terminally truncated version of TP81-111 (RKDRGASKTGKKGKGSK; UniProt O00585 104-120, looked up, fragment) | reduced signaling via cAMP | blunted chemotaxis boosting ability | 
6 | Cc1ccc(C(NC2=NS(=O)(=O)N=C2Nc2ccc(C)c(C(=O)N(C)C)c2O)C(C)(C)C)o1 (centres unmarked) [Cmp2105] |  |  | competition with CCL19 binding to CCR7 [5]: outcompetes CCL19 binding to CCR7
